Reference: US20080213281A1, “Butyrylcholinesterase Variants that Alter the Activity of Chemotherapeutic Agents” (priority 2002, published 2008)
Entries after “also recorded” stand apart in the source; their conditions may differ.

Experiment: HPLC assay of CPT-11 conversion to SN-38 by conditioned media of transiently expressed BChE variants
Type: biochemical
Details: for SN-38 formation from CPT-11 (in words): conditioned media, HPLC, compared to mock or wild-type; for Fold improvement in CPT-11 conversion: compared to wild-type butyrylcholinesterase, conditioned media exposed to 20 mM CPT-11 for 72 hours at 37° C., conservative values
Description: Butyrylcholinesterase variants were assayed for CPT-11 conversion activity using fluorescent High Performance Liquid Chromotography (HPLC) detection of SN-38 formation as described in Dodds and Rivory, Mol. Pharmacol. 56:1346-1353 (1999), which is incorporated herein by reference. Briefly, conditioned media from transiently expressed BChE variants were exposed to 20 mM CPT-11 for 72 hours at 37° C. and analyzed by HPLC for SN-38 formation (peak at about 4 minutes column retention time).

B1: F227A (protein)
chain: EDDIIIATKNGKVRGMNLTVFGGTVTAFLGIPYAQPPLGRLRFKKPQSLTKWSDIWNATKYANSCCQNIDQSFPGFHGSEMWNPNTDLSEDCLYLNVWIPAPKPKNATVLIWIYGGGFQTGTSSLHVYDGKFLARVERVIVVSMNYRVGALGFLALPGNPEAPGNMGLFDQQLALQWVQKNIAAFGGNPKSVTLFGESAGAASVSLHLLSPGSHSLFTRAILQSGSXNAPWAVTSLYEARNRTLNLAKLTGCSRENETEIIKCLRNKDPQEILLNEAFVVPYGTPLSVNFGPTVDGDFLTDMPDILLELGQFKKTQILVGVNKDEGTAFLVYGAPGFSKDNNSIITRKEFQEGLKIFFPGVSEFGKESILFHYTDWVDDQRPENYREALGDVVGDYNFICPALEFTKKFSEWGNNAFFYYFEHRSSKLPWPEWMGVMHGYEIEFVFGLPLERRDNYTKAEEILSRSIVKRWANFAKYGNPNETQNNSTSWPVFKSTEQKYLTLNTESTRIMTKLRAQQCRFWTSFFPKVLEMTGNIDEAEWEWKAGFHRWNNYMMDWKNQFNDYTSKKESCVGL
modifications: Synthetic butyrylcholinesterase variant; VARIANT (227)..(227): Xaa = Ala
**Q.** For B1, which “SN-38 formation from CPT-11 (in words)” value is on record?
**A.** produced a small amount of SN-38; also recorded: increased CPT-11 conversion to SN-38

B2: F227A/L286H (protein)
chain: EDDIIIATKNGKVRGMNLTVFGGTVTAFLGIPYAQPPLGRLRFKKPQSLTKWSDIWNATKYANSCCQNIDQSFPGFHGSEMWNPNTDLSEDCLYLNVWIPAPKPKNATVLIWIYGGGFQTGTSSLHVYDGKFLARVERVIVVSMNYRVGALGFLALPGNPEAPGNMGLFDQQLALQWVQKNIAAFGGNPKSVTLFGESAGAASVSLHLLSPGSHSLFTRAILQSGSXNAPWAVTSLYEARNRTLNLAKLTGCSRENETEIIKCLRNKDPQEILLNEAFVVPYGTPHSVNFGPTVDGDFLTDMPDILLELGQFKKTQILVGVNKDEGTAFLVYGAPGFSKDNNSIITRKEFQEGLKIFFPGVSEFGKESILFHYTDWVDDQRPENYREALGDVVGDYNFICPALEFTKKFSEWGNNAFFYYFEHRSSKLPWPEWMGVMHGYEIEFVFGLPLERRDNYTKAEEILSRSIVKRWANFAKYGNPNETQNNSTSWPVFKSTEQKYLTLNTESTRIMTKLRAQQCRFWTSFFPKVLEMTGNIDEAEWEWKAGFHRWNNYMMDWKNQFNDYTSKKESCVGL
modifications: Synthetic butyrylcholinesterase variant; VARIANT (227)..(227): Xaa = Ala; VARIANT (286)..(286): L286H
**Q.** For B2, which “Fold improvement in CPT-11 conversion” value is on record?
**A.** >35 fold

**Q.** And the “SN-38 formation from CPT-11 (in words)” value?
**A.** increased CPT-11 conversion to SN-38

B3: F227A/L286W (protein)
chain: EDDIIIATKNGKVRGMNLTVFGGTVTAFLGIPYAQPPLGRLRFKKPQSLTKWSDIWNATKYANSCCQNIDQSFPGFHGSEMWNPNTDLSEDCLYLNVWIPAPKPKNATVLIWIYGGGFQTGTSSLHVYDGKFLARVERVIVVSMNYRVGALGFLALPGNPEAPGNMGLFDQQLALQWVQKNIAAFGGNPKSVTLFGESAGAASVSLHLLSPGSHSLFTRAILQSGSANAPWAVTSLYEARNRTLNLAKLTGCSRENETEIIKCLRNKDPQEILLNEAFVVPYGTPWSVNFGPTVDGDFLTDMPDILLELGQFKKTQILVGVNKDEGTAFLVYGAPGFSKDNNSIITRKEFQEGLKIFFPGVSEFGKESILFHYTDWVDDQRPENYREALGDVVGDYNFICPALEFTKKFSEWGNNAFFYYFEHRSSKLPWPEWMGVMHGYEIEFVFGLPLERRDNYTKAEEILSRSIVKRWANFAKYGNPNETQNNSTSWPVFKSTEQKYLTLNTESTRIMTKLRAQQCRFWTSFFPKVLEMTGNIDEAEWEWKAGFHRWNNYMMDWKNQFNDYTSKKESCVGL
modifications: Synthetic butyrylcholinesterase variant; VARIANT (227)..(227): F227A; VARIANT (286)..(286): L286W
**Q.** With B3 as the molecule, how does the “Fold improvement in CPT-11 conversion” value read?
**A.** >42 fold

**Q.** What about the “SN-38 formation from CPT-11 (in words)” value of the same molecule?
**A.** increased CPT-11 conversion to SN-38

B4: F227A/S287P (protein)
chain: EDDIIIATKNGKVRGMNLTVFGGTVTAFLGIPYAQPPLGRLRFKKPQSLTKWSDIWNATKYANSCCQNIDQSFPGFHGSEMWNPNTDLSEDCLYLNVWIPAPKPKNATVLIWIYGGGFQTGTSSLHVYDGKFLARVERVIVVSMNYRVGALGFLALPGNPEAPGNMGLFDQQLALQWVQKNIAAFGGNPKSVTLFGESAGAASVSLHLLSPGSHSLFTRAILQSGSANAPWAVTSLYEARNRTLNLAKLTGCSRENETEIIKCLRNKDPQEILLNEAFVVPYGTPLXVNFGPTVDGDFLTDMPDILLELGQFKKTQILVGVNKDEGTAFLVYGAPGFSKDNNSIITRKEFQEGLKIFFPGVSEFGKESILFHYTDWVDDQRPENYREALGDVVGDYNFICPALEFTKKFSEWGNNAFFYYFEHRSSKLPWPEWMGVMHGYEIEFVFGLPLERRDNYTKAEEILSRSIVKRWANFAKYGNPNETQNNSTSWPVFKSTEQKYLTLNTESTRIMTKLRAQQCRFWTSFFPKVLEMTGNIDEAEWEWKAGFHRWNNYMMDWKNQFNDYTSKKESCVGL
modifications: Synthetic butyrylcholinesterase variant; VARIANT (227)..(227): F227A; VARIANT (287)..(287): Xaa = Pro
**Q.** Which results are given for B4?
**A.** Fold improvement in CPT-11 conversion: >6 fold; SN-38 formation from CPT-11 (in words): increased CPT-11 conversion to SN-38

B5: F227A/L286S (protein)
chain: EDDIIIATKNGKVRGMNLTVFGGTVTAFLGIPYAQPPLGRLRFKKPQSLTKWSDIWNATKYANSCCQNIDQSFPGFHGSEMWNPNTDLSEDCLYLNVWIPAPKPKNATVLIWIYGGGFQTGTSSLHVYDGKFLARVERVIVVSMNYRVGALGFLALPGNPEAPGNMGLFDQQLALQWVQKNIAAFGGNPKSVTLFGESAGAASVSLHLLSPGSHSLFTRAILQSGSXNAPWAVTSLYEARNRTLNLAKLTGCSRENETEIIKCLRNKDPQEILLNEAFVVPYGTPSSVNFGPTVDGDFLTDMPDILLELGQFKKTQILVGVNKDEGTAFLVYGAPGFSKDNNSIITRKEFQEGLKIFFPGVSEFGKESILFHYTDWVDDQRPENYREALGDVVGDYNFICPALEFTKKFSEWGNNAFFYYFEHRSSKLPWPEWMGVMHGYEIEFVFGLPLERRDNYTKAEEILSRSIVKRWANFAKYGNPNETQNNSTSWPVFKSTEQKYLTLNTESTRIMTKLRAQQCRFWTSFFPKVLEMTGNIDEAEWEWKAGFHRWNNYMMDWKNQFNDYTSKKESCVGL
modifications: Synthetic butyrylcholinesterase variant; VARIANT (227)..(227): Xaa = Ala; VARIANT (286)..(286): L286S
**Q.** For B5, which “Fold improvement in CPT-11 conversion” value is on record?
**A.** >50 fold

**Q.** What about the “Fold improvement in CPT-11 conversion” value (listed as F227A/L268S) of the same molecule?
**A.** ≥ 50 fold

**Q.** What about the “SN-38 formation from CPT-11 (in words)” value of the same molecule?
**A.** significant conversion; also recorded: increased CPT-11 conversion to SN-38

B6: F227A/T284A (protein)
chain: EDDIIIATKNGKVRGMNLTVFGGTVTAFLGIPYAQPPLGRLRFKKPQSLTKWSDIWNATKYANSCCQNIDQSFPGFHGSEMWNPNTDLSEDCLYLNVWIPAPKPKNATVLIWIYGGGFQTGTSSLHVYDGKFLARVERVIVVSMNYRVGALGFLALPGNPEAPGNMGLFDQQLALQWVQKNIAAFGGNPKSVTLFGESAGAASVSLHLLSPGSHSLFTRAILQSGSXNAPWAVTSLYEARNRTLNLAKLTGCSRENETEIIKCLRNKDPQEILLNEAFVVPYGXPLSVNFGPTVDGDFLTDMPDILLELGQFKKTQILVGVNKDEGTAFLVYGAPGFSKDNNSIITRKEFQEGLKIFFPGVSEFGKESILFHYTDWVDDQRPENYREALGDVVGDYNFICPALEFTKKFSEWGNNAFFYYFEHRSSKLPWPEWMGVMHGYEIEFVFGLPLERRDNYTKAEEILSRSIVKRWANFAKYGNPNETQNNSTSWPVFKSTEQKYLTLNTESTRIMTKLRAQQCRFWTSFFPKVLEMTGNIDEAEWEWKAGFHRWNNYMMDWKNQFNDYTSKKESCVGL
modifications: Synthetic butyrylcholinesterase variant; VARIANT (227)..(227): Xaa = Ala; VARIANT (284)..(284): Xaa = Ala
**Q.** Which “Fold improvement in CPT-11 conversion” value does the source give for B6 here?
**A.** >7 fold

**Q.** What about the “SN-38 formation from CPT-11 (in words)” value of the same molecule?
**A.** increased CPT-11 conversion to SN-38

B7: F227A/L286Q (protein)
chain: EDDIIIATKNGKVRGMNLTVFGGTVTAFLGIPYAQPPLGRLRFKKPQSLTKWSDIWNATKYANSCCQNIDQSFPGFHGSEMWNPNTDLSEDCLYLNVWIPAPKPKNATVLIWIYGGGFQTGTSSLHVYDGKFLARVERVIVVSMNYRVGALGFLALPGNPEAPGNMGLFDQQLALQWVQKNIAAFGGNPKSVTLFGESAGAASVSLHLLSPGSHSLFTRAILQSGSXNAPWAVTSLYEARNRTLNLAKLTGCSRENETEIIKCLRNKDPQEILLNEAFVVPYGTPQSVNFGPTVDGDFLTDMPDILLELGQFKKTQILVGVNKDEGTAFLVYGAPGFSKDNNSIITRKEFQEGLKIFFPGVSEFGKESILFHYTDWVDDQRPENYREALGDVVGDYNFICPALEFTKKFSEWGNNAFFYYFEHRSSKLPWPEWMGVMHGYEIEFVFGLPLERRDNYTKAEEILSRSIVKRWANFAKYGNPNETQNNSTSWPVFKSTEQKYLTLNTESTRIMTKLRAQQCRFWTSFFPKVLEMTGNIDEAEWEWKAGFHRWNNYMMDWKNQFNDYTSKKESCVGL
modifications: Synthetic butyrylcholinesterase variant; VARIANT (227)..(227): Xaa = Ala; VARIANT (286)..(286): L286Q
**Q.** Which “Fold improvement in CPT-11 conversion” value does the source give for B7 here?
**A.** >10 fold

**Q.** What about the “SN-38 formation from CPT-11 (in words)” value of the same molecule?
**A.** increased CPT-11 conversion to SN-38
